Measured values as given in article PMC8938434, “Atomic resolution dynamics of cohesive interactions in phase-separated Nup98 FG domains” (Nature Communications, 2022).

T1: prf.GLFG_(52 × 12)
T1 construct: engineered from the Tetrahymena thermophila MacNup98A FG domain; plasmid pSNG064; Isotope-labelled (15N, 13C) for NMR; also called perfect repeat; source: E. coli, inclusion bodies, Ni(II) chelate column, tag cut off with bdSENP1 protease, lyophilized; not shown: His14-ZZ-scSUMO, N-terminal, cleaved
T1 chain: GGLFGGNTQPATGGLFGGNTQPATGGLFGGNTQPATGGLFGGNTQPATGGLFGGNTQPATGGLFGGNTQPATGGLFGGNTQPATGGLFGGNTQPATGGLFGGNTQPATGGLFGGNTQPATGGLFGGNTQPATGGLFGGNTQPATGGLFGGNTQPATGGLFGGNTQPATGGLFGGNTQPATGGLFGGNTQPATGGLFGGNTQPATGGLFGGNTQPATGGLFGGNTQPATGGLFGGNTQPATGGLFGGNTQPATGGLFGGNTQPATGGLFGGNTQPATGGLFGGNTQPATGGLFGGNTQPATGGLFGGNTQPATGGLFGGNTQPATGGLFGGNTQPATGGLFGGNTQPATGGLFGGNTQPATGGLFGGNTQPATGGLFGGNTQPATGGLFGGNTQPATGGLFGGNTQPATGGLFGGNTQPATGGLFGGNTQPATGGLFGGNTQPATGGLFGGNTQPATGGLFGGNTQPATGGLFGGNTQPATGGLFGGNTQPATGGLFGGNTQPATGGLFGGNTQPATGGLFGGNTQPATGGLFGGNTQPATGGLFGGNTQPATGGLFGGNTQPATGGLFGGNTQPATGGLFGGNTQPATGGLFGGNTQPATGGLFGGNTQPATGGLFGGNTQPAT

B1: GLFG_(52 × 12) (other)
chain: GLFGNTGGAPAGGLFGNTQTQQGGGLFGQPQQTQGGGLFGQTGATTGGGLFGGATNTAPGGLFGGGGGNPTGGLFGGNNNQQTGGLFGQGTTQTGGGLFGAPQNNQGGGLFGGGTTTTGGGLFGANTQTGGGGLFGGPSQPTTAGLFGSNNPTTGGGLFGQPANTNNGGLFGGQTNNQASGLFGANNQPPTNGLFGNNNKPQTAGLFGGATTTGNTGLFGGANNTGGGGLFGNNTNNPTGGLFGATNPAGGGGLFGGGATTGGGGLFGGGNTQTGGGLFGTANTTTAGGLFGGGNTQPQNGLFGNNNTPATGGLFGQTNNAAPQGLFGGTNNNAASGLFGQKPASANGVLTKPNEKNLCYAISNGTDFCIFELALTQRKLVKAGQLKPGAQAGGLFGQPAQNTQGGLFGGGGAATTPGLFGGAQNNTTGGLFGGQNTQAGGGLFGAPNNAAATGLFGAGNANTQGGLFGAKPAATGGGLFGQPAQTQAGGLFGNTAQPAGGGLFGGATTTPGGGLFGGNTAATGGGLFGGNTQGATGGLFGGQQPNNQGGLFGNTNANTGGGLFGGATTTTGGGLFGGSTGATGGGLFGGASQPAAGGLFGGAAPQQNSGLFGGATAGQTGGLFGGATQQQGGGLFGQTASNPGGGLFGAANATTQPGLFGGNNQAATSC
B2: GXFG//L_(52 × 12) (other)
chain: GGFGNTGLAPAGGTFGNTQLQQGGGQFGQPQLTQGGGAFGQTGLTTGGGNFGGATLTAPGGGFGGGGLNPTGGNFGGNNLQQTGGTFGQGTLQTGGGNFGAPQLNQGGGTFGGGTLTTGGGQFGANTLTGGGGQFGGPSLPTTAGPFGSNNLTTGGGNFGQPALTNNGGNFGGQTLNQASGQFGANNLPPTNGKFGNNNLPQTAGTFGGATLTGNTGNFGGANLTGGGGNFGNNTLNPTGGPFGATNLAGGGGTFGGGALTGGGGTFGGGNLQTGGGTFGTANLTTAGGTFGGGNLQPQNGTFGNNNLPATGGNFGQTNLAAPQGNFGGTNLNAASGAFGQKPLSANGVLTKPNEKNLCYAISNGTDFCIFELALTQRKLVKAGQLKPGAQAGGQFGQPALNTQGGAFGGGGLATTPGNFGGAQLNTTGGTFGGQNLQAGGGNFGAPNLAAATGAFGAGNLNTQGGAFGAKPLATGGGQFGQPALTQAGGQFGNTALPAGGGTFGGATLTPGGGAFGGNTLATGGGQFGGNTLGATGGPFGGQQLNNQGGAFGNTNLNTGGGTFGGATLTTGGGGFGGSTLATGGGQFGGASLPAAGGPFGGAALQQNSGAFGGATLGQTGGQFGGATLQQGGGSFGQTALNPGGGAFGAANLTTQPGQFGGNNLAATTS
B3: GXFG//V_(52 × 12) (other)
chain: GGFGNTGVAPAGGTFGNTQVQQGGGQFGQPQVTQGGGAFGQTGVTTGGGNFGGATVTAPGGGFGGGGVNPTGGNFGGNNVQQTGGTFGQGTVQTGGGNFGAPQVNQGGGTFGGGTVTTGGGQFGANTVTGGGGQFGGPSVPTTAGPFGSNNVTTGGGNFGQPAVTNNGGNFGGQTVNQASGQFGANNVPPTNGKFGNNNVPQTAGTFGGATVTGNTGNFGGANVTGGGGNFGNNTVNPTGGPFGATNVAGGGGTFGGGAVTGGGGTFGGGNVQTGGGTFGTANVTTAGGTFGGGNVQPQNGTFGNNNVPATGGNFGQTNVAAPQGNFGGTNVNAASGAFGQKPVSANGVLTKPNEKNLCYAISNGTDFCIFELALTQRKLVKAGQLKPGAQAGGQFGQPAVNTQGGAFGGGGVATTPGNFGGAQVNTTGGTFGGQNVQAGGGNFGAPNVAAATGAFGAGNVNTQGGAFGAKPVATGGGQFGQPAVTQAGGQFGNTAVPAGGGTFGGATVTPGGGAFGGNTVATGGGQFGGNTVGATGGPFGGQQVNNQGGAFGNTNVNTGGGTFGGATVTTGGGGFGGSTVATGGGQFGGASVPAAGGPFGGAAVQQNSGAFGGATVGQTGGQFGGATVQQGGGSFGQTAVNPGGGAFGAANVTTQPGQFGGNNVAATSC
B4: GLLG_(52 × 12) (other)
chain: GSGLLGNTGGAPAGGLLGNTQTQQGGGLLGQPQQTQGGGLLGQTGATTGGGLLGGATNTAPGGLLGGGGGNPTGGLLGGNNNQQTGGLLGQGTTQTGGGLLGAPQNNQGGGLLGGGTTTTGGGLLGANTQTGGGGLLGGPSQPTTAGLLGSNNPTTGGGLLGQPANTNNGGLLGGQTNNQASGLLGANNQPPTNGLLGNNNKPQTAGLLGGATTTGNTGLLGGANNTGGGGLLGNNTNNPTGGLLGATNPAGGGGLLGGGATTGGGGLLGGGNTQTGGGLLGTANTTTAGGLLGGGNTQPQNGLLGNNNTPATGGLLGQTNNAAPQGLLGGTNNNAASGLLGQKPASANGVLTKPNEKNLCYAISNGTDFCIFELALTQRKLVKAGQLKPGAQAGGLLGQPAQNTQGGLLGGGGAATTPGLLGGAQNNTTGGLLGGQNTQAGGGLLGAPNNAAATGLLGAGNANTQGGLLGAKPAATGGGLLGQPAQTQAGGLLGNTAQPAGGGLLGGATTTPGGGLLGGNTAATGGGLLGGNTQGATGGLLGGQQPNNQGGLLGNTNANTGGGLLGGATTTTGGGLLGGSTGATGGGLLGGASQPAAGGLLGGAAPQQNSGLLGGATAGQTGGLLGGATQQQGGGLLGQTASNPGGGLLGAANATTQPGLLGGNNQAATSC
B5: Atto488-coupled GLFG_(52 × 12) (other)
chain: GSGLFGNTGGAPAGGLFGNTQTQQGGGLFGQPQQTQGGGLFGQTGATTGGGLFGGATNTAPGGLFGGGGGNPTGGLFGGNNNQQTGGLFGQGTTQTGGGLFGAPQNNQGGGLFGGGTTTTGGGLFGANTQTGGGGLFGGPSQPTTAGLFGSNNPTTGGGLFGQPANTNNGGLFGGQTNNQASGLFGANNQPPTNGLFGNNNKPQTAGLFGGATTTGNTGLFGGANNTGGGGLFGNNTNNPTGGLFGATNPAGGGGLFGGGATTGGGGLFGGGNTQTGGGLFGTANTTTAGGLFGGGNTQPQNGLFGNNNTPATGGLFGQTNNAAPQGLFGGTNNNAASGLFGQKPASANGVLTKPNEKNLCYAISNGTDFCIFELALTQRKLVKAGQLKPGAQAGGLFGQPAQNTQGGLFGGGGAATTPGLFGGAQNNTTGGLFGGQNTQAGGGLFGAPNNAAATGLFGAGNANTQGGLFGAKPAATGGGLFGQPAQTQAGGLFGNTAQPAGGGLFGGATTTPGGGLFGGNTAATGGGLFGGNTQGATGGLFGGQQPNNQGGLFGNTNANTGGGLFGGATTTTGGGLFGGSTGATGGGLFGGASQPAAGGLFGGAAPQQNSGLFGGATAGQTGGLFGGATQQQGGGLFGQTASNPGGGLFGAANATTQPGLFGGNNQAATSC
modifications: Atto488 (coupled)
B6: Atto488-coupled GXFG//L_(52 × 12) (other)
chain: GSGGFGNTGLAPAGGTFGNTQLQQGGGQFGQPQLTQGGGAFGQTGLTTGGGNFGGATLTAPGGGFGGGGLNPTGGNFGGNNLQQTGGTFGQGTLQTGGGNFGAPQLNQGGGTFGGGTLTTGGGQFGANTLTGGGGQFGGPSLPTTAGPFGSNNLTTGGGNFGQPALTNNGGNFGGQTLNQASGQFGANNLPPTNGKFGNNNLPQTAGTFGGATLTGNTGNFGGANLTGGGGNFGNNTLNPTGGPFGATNLAGGGGTFGGGALTGGGGTFGGGNLQTGGGTFGTANLTTAGGTFGGGNLQPQNGTFGNNNLPATGGNFGQTNLAAPQGNFGGTNLNAASGAFGQKPLSANGVLTKPNEKNLCYAISNGTDFCIFELALTQRKLVKAGQLKPGAQAGGQFGQPALNTQGGAFGGGGLATTPGNFGGAQLNTTGGTFGGQNLQAGGGNFGAPNLAAATGAFGAGNLNTQGGAFGAKPLATGGGQFGQPALTQAGGQFGNTALPAGGGTFGGATLTPGGGAFGGNTLATGGGQFGGNTLGATGGPFGGQQLNNQGGAFGNTNLNTGGGTFGGATLTTGGGGFGGSTLATGGGQFGGASLPAAGGPFGGAALQQNSGAFGGATLGQTGGQFGGATLQQGGGSFGQTALNPGGGAFGAANLTTQPGQFGGNNLAATTSC
modifications: Atto488 (coupled)
B7: Atto488-coupled GAFG_(52 × 12) (other)
chain: GSGAFGNTGGAPAGGAFGNTQTQQGGGAFGQPQQTQGGGAFGQTGATTGGGAFGGATNTAPGGAFGGGGGNPTGGAFGGNNNQQTGGAFGQGTTQTGGGAFGAPQNNQGGGAFGGGTTTTGGGAFGANTQTGGGGAFGGPSQPTTAGAFGSNNPTTGGGAFGQPANTNNGGAFGGQTNNQASGAFGANNQPPTNGAFGNNNKPQTAGAFGGATTTGNTGAFGGANNTGGGGAFGNNTNNPTGGAFGATNPAGGGGAFGGGATTGGGGAFGGGNTQTGGGAFGTANTTTAGGAFGGGNTQPQNGAFGNNNTPATGGAFGQTNNAAPQGAFGGTNNNAASGAFGQKPASANGVLTKPNEKNLCYAISNGTDFCIFELALTQRKLVKAGQLKPGAQAGGAFGQPAQNTQGGAFGGGGAATTPGAFGGAQNNTTGGAFGGQNTQAGGGAFGAPNNAAATGAFGAGNANTQGGAFGAKPAATGGGAFGQPAQTQAGGAFGNTAQPAGGGAFGGATTTPGGGAFGGNTAATGGGAFGGNTQGATGGAFGGQQPNNQGGAFGNTNANTGGGAFGGATTTTGGGAFGGSTGATGGGAFGGASQPAAGGAFGGAAPQQNSGAFGGATAGQTGGAFGGATQQQGGGAFGQTASNPGGGAFGAANATTQPGAFGGNNQAATTSC
modifications: Atto488 (coupled)

Biological target: the molecule itself
Assay: co-sedimentation; centrifugation assay of phase separation of GLFG_(52 × 12) variants at 25 °C, [FG domain] = 10 μM, [NaCl] = 150 mM, 20 mM NaPi pH 6.8, 5 mM DTT; repeated at 100 μM for GAFG, GLLG and GLAG; critical concentration = concentration of the supernatant
Conditions: not given

| Binder | critical concentration for phase separation |
| --- | --- |
| B1 | 0.1 µM |
| B2 | 0.8 µM |
| B3 | 8 µM |
| B4 | > 100 µM |

Biological target: T1, prf.GLFG_(52 × 12)
Assay: partition of Atto488-coupled FG domains into FG particles (confocal laser scanning microscopy); 20 μM unlabelled prf.GLFG_(52 × 12) premixed with 0.5 μM Atto488-labelled species (GAFG: 3 μM); 20 mM NaPi pH 6.8, 150 mM NaCl, 5 mM DTT; 21 °C; apparent partition coefficient = Atto488 signal IN: OUT of the FG particles
Conditions: both partners purified

| Binder | partition coefficient |
| --- | --- |
| B5 | > 1000 |
| B6 | > 1000 |
| B7 | 4 |
